Results as given in publication PMC11040006, “Molecular basis of an atypical dsDNA 5mC/6mA bifunctional dioxygenase CcTet from Coprinopsis cinerea in catalyzing dsDNA 5mC demethylation” (Nucleic Acids Research, 2024).

Experiments:
[1] = molecular target: T1, CcTet-ΔN16 (CcTet-Δ16; CcTet) (Coprinopsis cinerea, UniProt A8P1J0); experiment: X-ray crystallography, […] Å; type: binding; conditions: complex with Mn2+ and 12-bp 5mC-dsDNA; 2 mM NOG in the crystallization mix; 2-oxoglutarate site
T1 construct: gene CC1G_05589; N-terminal 16 residues deleted; His-SUMO1 tag removed by Ulp1; expressed in E. coli BL21(DE3) from pET-SUMO
T1 sequence (A8P1J0 17-430): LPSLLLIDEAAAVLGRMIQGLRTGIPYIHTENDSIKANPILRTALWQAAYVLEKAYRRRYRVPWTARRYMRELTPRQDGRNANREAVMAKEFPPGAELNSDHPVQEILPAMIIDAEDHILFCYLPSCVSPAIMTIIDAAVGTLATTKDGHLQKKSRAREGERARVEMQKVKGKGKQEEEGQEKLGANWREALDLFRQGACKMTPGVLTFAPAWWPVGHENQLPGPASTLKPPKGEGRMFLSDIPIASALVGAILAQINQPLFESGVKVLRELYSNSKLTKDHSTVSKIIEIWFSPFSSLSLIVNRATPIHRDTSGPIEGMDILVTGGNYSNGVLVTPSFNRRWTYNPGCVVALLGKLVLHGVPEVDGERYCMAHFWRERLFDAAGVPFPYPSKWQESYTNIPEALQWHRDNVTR

[2] = molecular target: T2, CcTet-ΔN16 (Coprinopsis cinerea, UniProt A8P1J0 17-430); experiment: X-ray crystallography (2.3 Å); Mn2+, N-oxalylglycine (NOG); MST: NT-495 labeled protein, room temperature, 5 min incubation, buffer not stated (protein gel-filtration buffer 20 mM HEPES pH 7.0, 100 mM NaCl, 1 mM DTT). Crystals: 2 mM NOG, 1 mM MnCl2, protein:DNA 1:1.2, 20 mM sodium formate, 10% PEG8000, 277 K; conditions: protein: recombinant; tags: N-terminal His-Sumo1, removed by Ulp1; blunt; as printed, T of strand 2 (position 7) lies opposite 5mC6 (mismatch)
T2 sequence: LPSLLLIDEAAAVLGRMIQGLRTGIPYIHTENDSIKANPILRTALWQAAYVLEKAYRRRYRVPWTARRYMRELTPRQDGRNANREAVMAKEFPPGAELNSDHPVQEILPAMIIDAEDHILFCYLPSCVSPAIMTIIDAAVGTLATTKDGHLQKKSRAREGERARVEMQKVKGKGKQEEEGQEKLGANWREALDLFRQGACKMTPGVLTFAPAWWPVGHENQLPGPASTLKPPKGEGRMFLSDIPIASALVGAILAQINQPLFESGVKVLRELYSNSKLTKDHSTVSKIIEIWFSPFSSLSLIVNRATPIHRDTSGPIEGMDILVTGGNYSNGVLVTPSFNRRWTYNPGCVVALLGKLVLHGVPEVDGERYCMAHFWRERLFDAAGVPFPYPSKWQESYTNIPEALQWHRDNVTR

[3] = molecular target: T3, CcTet-ΔN16 H234A (Coprinopsis cinerea, UniProt A8P1J0 17-430, H234A); experiment: MST; MST: NT-495 labeled protein, room temperature, 5 min incubation, buffer not stated (protein gel-filtration buffer 20 mM HEPES pH 7.0, 100 mM NaCl, 1 mM DTT). Crystals: 2 mM NOG, 1 mM MnCl2, protein:DNA 1:1.2, 20 mM sodium formate, 10% PEG8000, 277 K; conditions: protein: recombinant; tags: N-terminal His-Sumo1, removed by Ulp1; blunt
T3 sequence: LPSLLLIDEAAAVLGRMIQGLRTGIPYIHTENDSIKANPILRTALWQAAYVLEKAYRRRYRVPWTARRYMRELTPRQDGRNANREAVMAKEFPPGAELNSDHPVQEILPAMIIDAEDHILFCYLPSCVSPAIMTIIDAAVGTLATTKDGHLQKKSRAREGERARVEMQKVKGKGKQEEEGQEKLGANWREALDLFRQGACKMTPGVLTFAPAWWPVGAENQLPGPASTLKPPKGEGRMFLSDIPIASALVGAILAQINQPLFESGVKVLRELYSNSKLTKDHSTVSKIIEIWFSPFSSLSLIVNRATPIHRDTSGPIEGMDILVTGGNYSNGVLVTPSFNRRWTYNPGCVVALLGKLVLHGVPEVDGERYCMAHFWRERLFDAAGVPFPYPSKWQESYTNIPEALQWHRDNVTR

[4] = molecular target: T4, CcTet-ΔN16 R92A (Coprinopsis cinerea, UniProt A8P1J0 17-430, R92A); experiment: as above; conditions: protein: recombinant; tags: N-terminal His-Sumo1, removed by Ulp1; blunt
T4 sequence: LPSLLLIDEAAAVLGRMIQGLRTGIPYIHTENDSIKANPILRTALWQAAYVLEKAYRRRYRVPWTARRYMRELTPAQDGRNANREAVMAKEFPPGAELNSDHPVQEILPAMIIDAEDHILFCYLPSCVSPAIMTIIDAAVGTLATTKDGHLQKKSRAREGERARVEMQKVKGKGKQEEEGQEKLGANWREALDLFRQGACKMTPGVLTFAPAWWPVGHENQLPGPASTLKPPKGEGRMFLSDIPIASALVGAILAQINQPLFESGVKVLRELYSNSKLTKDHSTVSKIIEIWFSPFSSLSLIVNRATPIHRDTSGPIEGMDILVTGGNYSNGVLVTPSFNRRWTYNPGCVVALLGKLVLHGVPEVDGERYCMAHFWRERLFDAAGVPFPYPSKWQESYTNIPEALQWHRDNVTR

[5] = molecular target: T5, CcTet-ΔN16 R96A (Coprinopsis cinerea, UniProt A8P1J0 17-430, R96A); experiment: as above; conditions: protein: recombinant; tags: N-terminal His-Sumo1, removed by Ulp1; blunt
T5 sequence: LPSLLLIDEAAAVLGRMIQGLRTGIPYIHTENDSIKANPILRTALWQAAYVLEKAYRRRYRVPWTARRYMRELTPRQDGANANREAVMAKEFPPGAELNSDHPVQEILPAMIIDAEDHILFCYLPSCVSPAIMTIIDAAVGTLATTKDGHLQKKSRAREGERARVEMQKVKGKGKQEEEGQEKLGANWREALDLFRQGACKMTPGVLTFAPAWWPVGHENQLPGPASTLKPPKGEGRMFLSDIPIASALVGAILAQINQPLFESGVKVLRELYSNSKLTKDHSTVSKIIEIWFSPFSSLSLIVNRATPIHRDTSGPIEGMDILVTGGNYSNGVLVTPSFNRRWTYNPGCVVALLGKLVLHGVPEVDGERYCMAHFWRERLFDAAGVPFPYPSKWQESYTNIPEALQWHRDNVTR

O=C(O)CNC(=O)C(=O)O [N-oxalylglycine]
X-ray crystallography, 2.3 Å [1]: NOG was stabilized through hydrophilic and hydrophobic interactions with several nearby residues

B1: 12-bp 5mC-dsDNA (dsDNA)
DNA 1: CGATCCGCTACG
DNA 2: CGTAGCTGATCG
modifications: 5mC at position 6 of strand 1
binding result [2]: binds

B2: 19-bp 5mC-dsDNA (dsDNA)
DNA 1: TCTGGAACGGAATTCTTCA
DNA 2: TGAAGAATTCCGTTCCAGA
modifications: 5mC at position 8 of strand 1
binding result [3]: no binding | binding result [4]: no binding | binding result [5]: no binding
